# The supplement of paper PMC11780869
# System: Bacillus subtilis
# Test: cleaved RNA product abundance (RNA/gDNA barcode ratio) relative to median wild-type variant (ratio to wild type); higher = more accumulation of the downstream cleavage product
# Procedure, shortened: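 Sequencing of barcodes from gel-selected, reverse-transcribed cleaved RNA and from genomic DNA, with UMI collapsing, yielded a per-construct RNA:gDNA ratio. Scaled to the median construct with the unmutated site, this ratio is the cleaved product abundance. The barcoded reporters (truncated aprE or tetM mRNAs with mutagenized RNase Y cleavage-site windows) were integrated into the B. subtilis chromosome, and cultures grew in LB at 37°C from OD600 0.0003 to 0.3.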
# [1] = experiment (reporter, strain, medium): exp 8a: truncated aprE reporter, strain BJT201 with 2% xylose (RNase J1 expressed), cleavage site: glnRA (positions -5 to +31 mutated)
# [2] = experiment (reporter, strain, medium): exp 2b: truncated aprE reporter, strain BJT200, cleavage site: cggR-gapA (positions -7 to +36 mutated)
# [3] = experiment (reporter, strain, medium): exp 4a: truncated aprE reporter, strain BJT201 with 2% xylose (RNase J1 expressed), cleavage site: cggR-gapA (positions -7 to +36 mutated)
Sequence,cleaved RNA product abundance [1],cleaved RNA product abundance [2],cleaved RNA product abundance [3],further results
CGACATGTCCCGCTTCTTTCATTAATCCGTTAGCAACTGTTTTGCTATAGACATTCACCTTTTAAGAGGAGGAAT,0.435,–,–,–
ACAGACGAAGGAGCCGCAAAGAAGTTATTAAGTGATGTATAATCCCTCAATATAAATATCTCTCACTTATTTAAA,–,0.088,0.144,–
ACAGACGAAGGAGCCGCAAAGAAGTTATTAAGGCATGAATAATCGCTCAATATAAATATCTCTCACTTATTTAAA,–,–,0.0686,–
CGACATGTCCCGCTTCTTTCATTAATCCGTTAGCAACTGGTTTGATATATACATTTACCTTTTAAGAGGAGGAAT,0.485,–,–,–
CGACATGTCCCGCTTCTTTCATTAATCCGTTAGCAACCGTGTTACTATATAAATTTACCTTTTAAGAGGAGGAAT,0.271,–,–,–
CGACATGTCCCGCTTCTTTCATTAATCCGTTAACAACTGTTTTGCTATATAAATTTACCTTTTAAGAGGAGGAAT,0.227,–,–,–
CGACATGTCCCGCTTCTTTCATTAATACGTTAGCAACTGTTTTGCTATATATATTTACCTTTTAAGAGGAGGAAT,1.83,–,–,–
ACAGACGAAGGAGCCGCAAAGAAGTTATTAAGGGATTTATAATCCCTCAATATAAATATCTCTCACTTATTTAAA,–,–,0.931,–
CGACATGTCCCGCTTCTTTCATTAATCCCTTAGCAACTGTTTTGATATATACATTTAACTTTTAAGAGGAGGAAT,0.245,–,–,–
ACAGACGAAGGAGCCGCAAAGAAGATATTAAGGGATGAATAATTCCTCAATATAAATATCTCTCACTTATTTAAA,–,–,1.05,–
ACAGACGAAGGAGCCGCAAAGAAGTTATTAATGGATGAAAAATCCCTCAATATAAATATCTCTCACTTATTTAAA,–,0.111,0.166,–
ACAGACGAAGGAGCCGCAAAGAAGTTATTAAGGGATGAATAATCCCTCAATATAGATATCTCTCACTTATTTAAA,–,0.711,0.683,–
CGACATGTCCCGCTTCTTTCATTAATCCGTAAGCAACTGTTTTACTATATACATTTACCTTTTAAGAGGAGGAAT,0.583,–,–,–
CGACATGTCCCGCTTCTTTCATTAATCCGTTAGCAACTGTTTTGCTATATACAGTTACGTTTTAAGAGGAGGAAT,0.192,–,–,–
ACAGACGAAGGAGCCGCAAAGAAGTTATTAAGGGATGGATAATCCCTCGATATAAATATCTCTCACTTATTTAAA,–,–,0.235,–
ACAGACGAAGGAGCCGCAATAAAGTTATTAAGGGATGAATAATCCCTCAATATAAATATCTCTCACTTATTTAAA,–,1.03,1.09,–
CGACATGTCCCGCTTCTTTCATTAATCCGAAAGCAACTGTTTTGCTATATACATTTACCTTTTAAGAGGAGGAAT,0.39,–,–,–
CGACATGTCCCGCTTCTTTCATTAATCCGTTAGCAACTGTCTTACTATATACATTTACCTTTTAAGAGGAGGAAT,0.324,–,–,–
CGACATGTCCCGCTTCTTTCATTAATCTGTTAGCAACTGTTTTGCTATATACATCTACCTTTTAAGAGGAGGAAT,0.993,–,–,–
ACAGACGAAGGAGCCGCAAAGAAGTAATTAAGGGATGAATGATCCCTCAATATAAATATCTCTCACTTATTTAAA,–,0.134,–,–
ACAGACGAAGGAGCCGCAAAGAAGTAATTAAGGGAAGAATAATCCCTCAATATAAATATCTCTCACTTATTTAAA,–,0.117,0.263,–
ACAGACGAAGGAGCCGCAAAGAAGTTATTAATGGATGAATAATCCTTCAATATAAATATCTCTCACTTATTTAAA,–,0.212,0.191,–
ACAGACGAAGGAGCCGCCAAGAAGTTATTAAGGTATGAATAATCCCTCAATATAAATATCTCTCACTTATTTAAA,–,–,0.103,–
ACAGACGAAGGAGCCGCAAAGAAGTTATTAAGGGTTGAATAATCCCTCAATATACATATCTCTCACTTATTTAAA,–,–,0.404,–
ACAGACGAAGGAGCCGCAACGAAGTTATTAAGGGTTGAATAATCCCTCAATATAAATATCTCTCACTTATTTAAA,–,–,0.508,–
ACAGACGAAGGAGCCGCACAGAACTTATTAAGGGATGAATAATCCCTCAATATAAATATCTCTCACTTATTTAAA,–,–,0.558,–
ACAGACGAAGGAGCCGCAAAGAAGTTAGTAAGGGATGAATAATCCCTCAATATAAATATCTCTCACTTATTTAAA,–,0.306,0.443,"cleaved RNA product abundance (experiment (reporter, strain, medium): exp 6: tetM reporter, strain 168, cleavage site: cggR-gapA (positions -7 to +36 mutated)): 0.559"

Sequence,cleaved RNA product abundance [1],cleaved RNA product abundance [2],cleaved RNA product abundance [3],further results
ACAGACGAAGGAGCCGCAAAGAAGTTATTAAGGGAAGAATAATCCATCAATATAAATATCTCTCACTTATTTAAA,–,0.114,0.105,–
ACAGACGAAGGAGCCGCAAAGAAGTTATTAAGGGATGAATAATCCCACAATATACATATCTCTCACTTATTTAAA,–,–,0.249,–
CGACATGTCCCGCTTCTTTCATTAATCCGTTAGCAACTGTTTTGCTATCTACATTTACCTTTTAAGAGGAGGAAT,0.098,–,–,–
ACAGACGAAGGAGCCGCAAAGAAGTTATTAAAGGATGAATAATGCCTCAATATAAATATCTCTCACTTATTTAAA,–,0.118,0.087,–
CGACATGTCCCGCTTCTTTCATTAATCCGTTAGCAACTGTTTTGATATATATATTTACCTTTTAAGAGGAGGAAT,0.766,–,–,–
ACAGACGAAGGAGCCGCAAAGAAGTTATTAAGCGATGAATAATCCCTCCATATAAATATCTCTCACTTATTTAAA,–,–,0.0952,–
ACAGACGAAGGAGCCGCAAAGAAGTTATTAAGTGATGAATAATACCTCAATATAAATATCTCTCACTTATTTAAA,–,0.109,0.0926,–
ACAGACGAAGGAGCCGCAAAGAAGTTATTAAGGGATAAATAATCCCTCAATATAAAGATCTCTCACTTATTTAAA,–,0.482,0.505,–
ACAGACGAAGGAGCCGCAAAGATGTTATTAAGGGATGAATAATCCCACAATATAAATATCTCTCACTTATTTAAA,–,0.227,0.248,–
ACAGACGAAGGAGCCGCAATTAAGTTATTAAGGGATGAATAATCCCTCAATATAAATATCTCTCACTTATTTAAA,–,0.955,0.863,–
ACAGACGAAGGAGCCGCAAAGAAGTTATAAATGGATGAATAATCCCTCAATATAAATATCTCTCACTTATTTAAA,–,0.113,0.165,–
CGACATGTCCCGCTTCTTTCATTAATCCGTTAGCAACTGTTATGCTATATACATTTACCTTTTAAGAGGAGGAAT,0.695,–,–,–
ACAGACGAAGGAGCCGCAAAGAAGTTATTAAGGGATAAATAACCCCTCAATATAAATATCTCTCACTTATTTAAA,–,0.423,0.499,–
CGACATGTCCCGCTTCTTTCATTAATCCGATGGCAACTGTTTTGCTATATACATTTACCTTTTAAGAGGAGGAAT,0.74,–,–,–
CGACATGTCCCGCTTCTTTCATTAATCCGTTAGCAACTTTTTTGCTATATACATTTACCATTTAAGAGGAGGAAT,1.97,–,–,–
CGACATGTCCCGCTTCTTTCATTAATCCGTTACCAACTGTTTTGCTATATACATTTAACTTTTAAGAGGAGGAAT,0.282,–,–,–
CGACATGTCCCGCTTCTTTCATTAATCCTTCAGCAACTGTTTTGCTATATACATTTACCTTTTAAGAGGAGGAAT,0.478,–,–,–
ACAGACGAAGGAGCCGCAAAGAAGTTATTCAGAGATGAATAATCCCTCAATATAAATATCTCTCACTTATTTAAA,–,0.167,0.159,–
CGACATGTCCCGCTTCTTTCATTAATCAGTTACCAACTGTTTTGCTATATACATTTACCTTTTAAGAGGAGGAAT,0.267,–,–,–
ACAGACGAAGGAGCCGCAAAGAACTTATTAAGGGATGAATAATCCCTAAATATAAATATCTCTCACTTATTTAAA,–,0.258,0.454,–
CGACATGTCCCGCTTCTTTCATTAATCCGTAAGCAACTGTTTTGCTATATATATTTACCTTTTAAGAGGAGGAAT,0.449,–,–,–
ACAGACGAAGGAGCCGCAAAGAAGTTATTAAAGGATGAATAATCCCTCATTATAAATATCTCTCACTTATTTAAA,–,–,0.245,–
ACAGACGAAGGAGCCGCAAAGAAGTTATTAAGGGATGAACAATACCTCAATATAAATATCTCTCACTTATTTAAA,–,–,0.229,–
CGACATGTCCCGCTTCTTTCATTATTCCGTTAGCAACTGTTTTGGTATATACATTTACCTTTTAAGAGGAGGAAT,0.304,–,–,–
CGACATGTCCCGCTTCTTTCATTAATCCGTTAGCAAGTGTTTTGCTATATACATTTACTTTTTAAGAGGAGGAAT,1.39,–,–,–
CGACATGTCCCGCTTCTTTCATTAATCCTTTAGCAACTGTTTTGCTATATACAATTACCTTTTAAGAGGAGGAAT,0.889,–,–,–
